To fix the notation:
B1: cPT 3 (AAR029b) (peptide)
peptide: DNI[triazolo‑Pro(ferrocenyl)]WK-NH2
modifications: lactam 1-6
notes: Ferrocene-containing parent cyclic peptide triazole; also called lead cPT 3
B2: cPT 20 (peptide)
peptide: DNIPWK-NH2
modifications: lactam 1-6; not fully specified (residue 4); also: further groups not given here

Bridges are numbered along the chain shown (N, C = ends). Where no end group is shown, it is not given here. [ ]: non-standard residue; d: D form. triazolo‑Pro(2,4-diMe-benzyl) = triazolo-proline with ortho- and para-methyl phenyl methyl on the triazole; triazolo‑Pro(3,4-diMe-benzyl) = triazolo-proline with para- and meta-methyl phenyl methyl on the triazole; triazolo‑Pro(3,5-diMe-benzyl) = triazolo-proline with two meta-methyl phenyl methyl on the triazole; triazolo‑Pro(2-Me-benzyl) = triazolo-proline with ortho-methyl phenyl methyl on the triazole; triazolo‑Pro(3-Me-benzyl) = triazolo-proline with meta-methyl phenyl methyl on the triazole; triazolo‑Pro(4-Me-benzyl) = triazolo-proline with para-methyl phenyl methyl on the triazole; triazolo‑Pro(4-tBu-phenyl) = triazolo-proline with para-tert-butylphenyl on the triazole; triazolo‑Pro(ferrocenyl) = triazolo-proline carrying a ferrocene moiety on the triazole; triazolo‑Pro(benzyl) = triazolo-proline with phenyl methyl moiety on the triazole; triazolo‑Pro(biphenyl) = triazolo-proline with biphenyl group on the triazole

One experiment has as its target HIV-1 BaL.01 Env gp160 on pseudovirus (HIV-1 BaL.01). Put plainly: cell-based or functional assay.
In the case of B1, the “HIV-1Bal.01 infection inhibition IC50” value is around 237 nM.

Consider DNI[4‑(4-(4-(thiophen-2-yl)phenyl)-1H-1,2,3-triazol-1-yl)proline]WK-NH2 (lactam 1-6, also called Compound 29N-2) [cPT 36 (29N-2)], for which the “HIV-1 infection inhibition IC50” value is around 105 nM.

On to DNI[triazolo‑Pro]WK-NH2 (lactam 1-6; not fully specified) [cPT 18], for which the “HIV-1 cell infection inhibition IC50” value is around 1300 nM.

For the molecule DNI[triazolo‑Pro(2-Me-benzyl)]WK-NH2 (lactam 1-6) [cPT 25], the “HIV-1 cell infection inhibition, fold lower potency against cPT 24” value is around 28 fold.

The target is the same in another experiment. Put plainly: cell-based or functional assay. The source holds these as a separate data set.
With DNI[triazolo‑Pro(4-iPr-phenyl)]WK-NH2 (lactam 1-6) [cPT 21], the “HIV-1Bal.01 infection inhibition IC50” value came out at 900 nM.

For the molecule DNI[triazolo‑Pro(4-Me-benzyl)]WK-NH2 (lactam 1-6) [cPT 24], the “HIV-1Bal.01 infection inhibition IC50” value was 180 nM.

For the molecule DNI[triazolo‑Pro(3,4-diMe-benzyl)]WK-NH2 (lactam 1-6) [cPT 29], the “HIV-1Bal.01 infection inhibition IC50” value was found to be 8000 nM.

Consider DNI[triazolo‑Pro(2,4-diMe-benzyl)]WK-NH2 (lactam 1-6) [cPT 27], for which the “HIV-1Bal.01 infection inhibition IC50” value is 302 nM.

In the case of DNI[triazolo‑Pro(3,5-diMe-benzyl)]WK-NH2 (lactam 1-6) [cPT 28], the “HIV-1Bal.01 infection inhibition IC50” value is 2000 nM.

DNI[triazolo‑Pro(4-tBu-phenyl)]WK-NH2 (lactam 1-6) [cPT 22]: the “HIV-1Bal.01 infection inhibition IC50” value is 350 nM.

As to DNI[triazolo‑Pro]WK-NH2 (lactam 1-6; not fully specified) [cPT 18], the “HIV-1Bal.01 infection inhibition IC50” value was 1400 nM.

Consider DNI[triazolo‑Pro(benzyl)]WK-NH2 (lactam 1-6) [cPT 19], for which the “HIV-1Bal.01 infection inhibition IC50” value turned out to be 438 nM.

Consider DNI[triazolo‑Pro(biphenyl)]WK-NH2 (lactam 1-6) [cPT 23], for which the “HIV-1Bal.01 infection inhibition IC50” value amounted to 269 nM.

B2: the “HIV-1Bal.01 infection inhibition IC50” value was found to be 1200 nM.

Turning to DNI[triazolo‑Pro(3-Me-benzyl)]WK-NH2 (lactam 1-6) [cPT 26], the “HIV-1Bal.01 infection inhibition IC50” value was 220 nM.

As for DNI[triazolo‑Pro(2-Me-benzyl)]WK-NH2 (lactam 1-6) [cPT 25], the “HIV-1Bal.01 infection inhibition IC50” value was 5100 nM.

The target in another experiment is T1, wild type monomeric full-length HIV-1 YU-2 gp120 (HIV-1 YU-2, UniProt P35961 32-498).
T1 construct: domain: gp120; also called gp120YU-2; gp120 YU-2
Briefly: ITC with monomeric gp120 YU-2.
Description: (§1) The resulting heat changes were integrated, and the values obtained were fitted to a quadratic binding equation (one site binding model).
(§2) cPT dissociation constants were determined at 25° C. on a VP-Isothermal Titration Calorimeter (VP-ITC) system (MicroCal™, GE Healthcare, Freiburg). […] The resulting heat change upon injection was integrated over a time range of 300 sec, and the obtained values were fitted to a standard single-site binding model using ORIGIN®.
Turning to B1, the “-TΔS” value was -2.75 kcal/mol.

As for DNI[4‑(4-(4-(thiophen-2-yl)phenyl)-1H-1,2,3-triazol-1-yl)proline]WK-NH2 (lactam 1-6, also called Compound 29N-2) [cPT 36 (29N-2)], the “-TΔS” value was -4.74 kcal/mol.

The target of the next experiment is T1, wild type monomeric full-length HIV-1 …. Briefly: ITC, peptide titrated into 30 µM full-length gp120 YU-2, 25 °C, PBS pH 7.3. On the technique in general: Isothermal titration calorimetry measures the heat released or taken up as one component is titrated into another.
Description: as §1, §2
With B1, the Kd (in general, a measure of binding affinity in units of concentration) is 415 nM; the ΔH was -5.96 kcal/mol; the ΔS worked out at 0.00922 kcal/mol.

With DNI[4‑(4-(4-(thiophen-2-yl)phenyl)-1H-1,2,3-triazol-1-yl)proline]WK-NH2 (lactam 1-6, also called Compound 29N-2) [cPT 36 (29N-2)], the Kd turned out to be 350 nM, the ΔH was -4.07 kcal/mol and the ΔS was determined as 0.0159 kcal/mol.

The next experiment has the same target. Put plainly: SPR competition: gp120 YU-2 with increasing peptide over immobilised 17b; competitor 17b.
Description: (§3) For kinetic analyses, typically 2000-3000 RUs of protein reagents are immobilized on SPR chips, and analytes are passed over the surface at 50-100 μL/min. Surface regeneration is achieved by a 5 μL injection of 10 mM HCl solution at 100 μL/min.
(§4) Data analysis of SPR competition data was performed using BIAevaluation v4.1.1 software (GE). To correct for nonspecific binding, response signals from buffer injection and from control flow cell were subtracted from all sensorgrams. […] The inhibition curve was plotted and then fitted using the four-parameter equation as shown below using OriginPro 8 graphing software.
DNI[4‑(4-(4-(thiophen-2-yl)phenyl)-1H-1,2,3-triazol-1-yl)proline]WK-NH2 (lactam 1-6, also called Compound 29N-2) [cPT 36 (29N-2)]: the IC50 (usually the point on the concentration scale where inhibition reaches its midpoint) is around 56 nM.

The next experiment has the same target. The experiment is described as above. This is another data set of the same source.
Description: as §3, §4
On to DNI[triazolo‑Pro(4-iPr-phenyl)]WK-NH2 (lactam 1-6) [cPT 21], for which the IC50 is 1260 nM.

DNI[triazolo‑Pro(4-Me-benzyl)]WK-NH2 (lactam 1-6) [cPT 24] displayed an IC50 of 74 nM.

Molecule DNI[triazolo‑Pro(3,4-diMe-benzyl)]WK-NH2 (lactam 1-6) [cPT 29] returned an IC50 of 2600 nM.

In the case of DNI[triazolo‑Pro(2,4-diMe-benzyl)]WK-NH2 (lactam 1-6) [cPT 27], the IC50 stood at 136 nM.

DNI[triazolo‑Pro(3,5-diMe-benzyl)]WK-NH2 (lactam 1-6) [cPT 28] returned an IC50 of 918 nM.

The molecule DNI[triazolo‑Pro(4-tBu-phenyl)]WK-NH2 (lactam 1-6) [cPT 22] came in with an IC50 of 120 nM.

As to DNI[triazolo‑Pro]WK-NH2 (lactam 1-6; not fully specified) [cPT 18], the IC50 stood at 647 nM.

Turning to DNI[triazolo‑Pro(benzyl)]WK-NH2 (lactam 1-6) [cPT 19], the IC50 amounted to 269 nM.

DNI[triazolo‑Pro(biphenyl)]WK-NH2 (lactam 1-6) [cPT 23]: the half-maximal inhibitory concentration (IC50) amounted to 720 nM.

In the case of B2, the IC50 is 820 nM.

DNI[triazolo‑Pro(3-Me-benzyl)]WK-NH2 (lactam 1-6) [cPT 26] registered an IC50 of 228 nM. Against the preceding molecule, the IC50 is about 3.6-fold lower.

DNI[triazolo‑Pro(2-Me-benzyl)]WK-NH2 (lactam 1-6) [cPT 25] had an IC50 of 128 nM.

For a further experiment the target is unchanged. Put plainly: SPR competition: gp120 YU-2 with increasing peptide over immobilised soluble CD4; competitor CD4.
Description: as §3, §4
DNI[4‑(4-(4-(thiophen-2-yl)phenyl)-1H-1,2,3-triazol-1-yl)proline]WK-NH2 (lactam 1-6, also called Compound 29N-2) [cPT 36 (29N-2)] had an IC50 of around 66 nM.

For the next experiment the target is unchanged. The experiment is described as above. The source holds these as a separate data set.
Description: as §3, §4
Turning to DNI[triazolo‑Pro(4-iPr-phenyl)]WK-NH2 (lactam 1-6) [cPT 21], the IC50 was determined as 1200 nM.

In turn, DNI[triazolo‑Pro(4-Me-benzyl)]WK-NH2 (lactam 1-6) [cPT 24] gave an IC50 of 80 nM.

The molecule DNI[triazolo‑Pro(3,4-diMe-benzyl)]WK-NH2 (lactam 1-6) [cPT 29] registered an IC50 of 2800 nM. This IC50 lies about 35-fold higher than the previous one.

As for DNI[triazolo‑Pro(2,4-diMe-benzyl)]WK-NH2 (lactam 1-6) [cPT 27], the 50% inhibitory concentration (IC50) amounted to 130 nM. Against the preceding molecule, the IC50 is about 22-fold lower.

The molecule DNI[triazolo‑Pro(3,5-diMe-benzyl)]WK-NH2 (lactam 1-6) [cPT 28] registered an IC50 of 926 nM. This IC50 is about 7.1-fold higher than that of the molecule before.

For the molecule DNI[triazolo‑Pro(4-tBu-phenyl)]WK-NH2 (lactam 1-6) [cPT 22], the IC50 was 150 nM.

Molecule DNI[triazolo‑Pro(benzyl)]WK-NH2 (lactam 1-6) [cPT 19] yielded an IC50 of 257 nM.

DNI[triazolo‑Pro(biphenyl)]WK-NH2 (lactam 1-6) [cPT 23] gave an IC50 of 680 nM.

On to B2, for which the IC50 was 956 nM.

The molecule DNI[triazolo‑Pro(3-Me-benzyl)]WK-NH2 (lactam 1-6) [cPT 26] returned an IC50 of 234 nM.

DNI[triazolo‑Pro(2-Me-benzyl)]WK-NH2 (lactam 1-6) [cPT 25] had an IC50 of 132 nM.

The next experiment has the same target. Put plainly: SPR competition: gp120 YU-2 with increasing peptide over immobilised soluble CD4; competitor CD4; CD4 competition column, not 17b competition.
Description: as §3, §4
In turn, DNI[triazolo‑Pro]WK-NH2 (lactam 1-6; not fully specified) [cPT 18] had an IC50 of 614 nM. This counts as sub-micromolar.

The next experiment has the same target. Put plainly: SPR competition: fixed HIV-1 YU-2 gp120 mixed with rising concentrations of 36 and passed over immobilized 17b; y axis % gp120 binding to 17b falls from about 100 to near 0 between about 2 and 2500 nM.
Description: as §3, §4
In turn, DNI[4‑(4-(4-(thiophen-2-yl)phenyl)-1H-1,2,3-triazol-1-yl)proline]WK-NH2 (lactam 1-6, also called Compound 29N-2) [cPT 36 (29N-2)] had an IC50 of 56 nM. This lies in the double-digit nanomolar range.

The target is the same in the next experiment. Briefly: SPR competition: fixed HIV-1 YU-2 gp120 mixed with rising concentrations of 36 and passed over immobilized soluble CD4; y axis % gp120 binding to CD4 falls from about 97 to about 10 between about 5 and 2500 nM.
Description: as §3, §4
In the case of DNI[4‑(4-(4-(thiophen-2-yl)phenyl)-1H-1,2,3-triazol-1-yl)proline]WK-NH2 (lactam 1-6, also called Compound 29N-2) [cPT 36 (29N-2)], the IC50 came to 66 nM.

For the origin of these results see US20220204565A1 (DREXEL UNIVERSITY, published 2022).
